# Patent US20220017608A1 (Teva, published 2022)
# Where no end group is shown, it is not given here. The star is where a group is joined. Biotin = O=C1N[C@H]2[C@H](CS[C@H]2CCCCC(=O)*)N1
# T1: human α-CGRP (human, C-terminal amide (CONH2); N-biotinylated when captured on the Biacore chip)
# T1 construct: N-biotinylated in the Biacore assays; also called α-Hu; α-human
# T1 peptide: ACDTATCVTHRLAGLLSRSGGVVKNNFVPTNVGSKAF
# T2: rat α-CGRP (rat, not fully specified; C-terminal amide (CONH2); N-biotinylated when captured on the Biacore chip)
# T2 construct: also called α-Rat; α-rat
# T2 peptide: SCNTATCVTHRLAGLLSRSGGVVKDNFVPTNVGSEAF
# T3: rat β-CGRP (rat, not fully specified; C-terminal amide (CONH2); N-biotinylated when captured on the Biacore chip)
# T3 construct: also called β-rat
# T3 peptide: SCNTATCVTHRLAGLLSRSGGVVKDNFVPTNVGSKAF
# T4: human β-CGRP (human, not fully specified; C-terminal amide (CONH2); N-biotinylated when captured on the Biacore chip)
# T4 construct: also called β-human
# T4 peptide: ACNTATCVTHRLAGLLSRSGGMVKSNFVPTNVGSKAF
# T5: calcitonin (Homo sapiens (Human), UniProt P01258 85-116, not fully specified; Natural calcitonin has a C-terminal Pro amide and a Cys1-Cys7 disulfide. The patent passages shown say nothing on this.)
# T5 peptide: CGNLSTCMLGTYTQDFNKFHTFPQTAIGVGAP
# T6: adrenomedullin (Homo sapiens (Human), UniProt P35318 95-146, Natural adrenomedullin has a C-terminal Tyr amide and a Cys16-Cys21 disulfide. The patent passages shown say nothing on this.)
# T6 sequence (peptide): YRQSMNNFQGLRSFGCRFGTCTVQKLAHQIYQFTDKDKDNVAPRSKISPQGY
# T7: amylin (Homo sapiens (Human), UniProt P10997 34-70, not fully specified; Natural amylin has a C-terminal Tyr amide and a Cys2-Cys7 disulfide. The patent passages shown say nothing on this.)
# T7 peptide: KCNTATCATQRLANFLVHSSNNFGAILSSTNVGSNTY
# T8: F27A (ends and bridges not checked)
# T8 construct: also called HuαCGRP fragment 25-37 F27A
# T8 peptide: Biotin-NNAVPTNVGSKAF
# T9: V32A (ends and bridges not checked)
# T9 construct: also called HuαCGRP fragment 25-37 V32A
# T9 peptide: Biotin-NNFVPTNAGSKAF
# T10: N31A (ends and bridges not checked)
# T10 construct: also called HuαCGRP fragment 25-37 N31A
# T10 peptide: Biotin-NNFVPTAVGSKAF
# T11: P29A (ends and bridges not checked)
# T11 construct: also called HuαCGRP fragment 25-37 P29A
# T11 peptide: Biotin-NNFVATNVGSKAF
# T12: V28A (ends and bridges not checked)
# T12 construct: also called HuαCGRP fragment 25-37 V28A
# T12 peptide: Biotin-NNFAPTNVGSKAF
# T13: K35A (ends and bridges not checked)
# T13 construct: also called HuαCGRP fragment 25-37 K35A
# T13 peptide: Biotin-NNFVPTNVGSAAF
# T14: T30A (ends and bridges not checked)
# T14 construct: also called HuαCGRP fragment 25-37 T30A
# T14 peptide: Biotin-NNFVPANVGSKAF
# Columns and labels:
# human α-CGRP [1] = target: T1, human α-CGRP; assay: Biacore, N-biotinylated CGRP captured on chip, 25 C
# rat α-CGRP [2] = target: T2, rat α-CGRP; assay: as above
# human α-CGRP [3] = target: T1, human α-CGRP; assay: blocking of human α-CGRP binding to the CGRP1-receptor in SK-N-MC cells; IC50 converted to binding sites
# human α-CGRP [4] = target: T1, human α-CGRP; assay: Biacore, N-biotin-CGRP on chip, 37 C
# rat α-CGRP [5] = target: T2, rat α-CGRP; assay: Biacore, N-biotin-CGRP on chip, 37 C
# rat β-CGRP [6] = target: T3, rat β-CGRP; assay: Biacore, N-biotin-CGRP on chip, 37 C
# human β-CGRP = target: T4, human β-CGRP; assay: Biacore, N-biotin-CGRP on chip, 37 C
# human α-CGRP [7] = target: T1, human α-CGRP; assay: Biacore, N-biotin-CGRP on chip, 25 C
# rat α-CGRP [8] = target: T2, rat α-CGRP; assay: Biacore, N-biotin-CGRP on chip, 25 C
# cynomolgus monkey α-CGRP = target: T15, cynomolgus monkey α-CGRP (cynomolgus monkey); assay: Biacore
# T15 construct: also called cyno CGRP
# human α-CGRP [9] = target: T1, human α-CGRP; assay: competition binding assay on SK-N-MC cells: antibody blocks binding of human α-CGRP to the CGRP1 receptor; value in binding sites
# human α-CGRP [10] = target: T1, human α-CGRP; assay: competition binding assay on SK-N-MC cells: antibody blocks binding of human α-CGRP to the CGRP1 receptor
# calcitonin = target: T5, calcitonin; assay: Biacore solution competition, chip probes free G1
# adrenomedullin = target: T6, adrenomedullin; assay: Biacore solution competition, chip probes free G1
# amylin = target: T7, amylin; assay: Biacore solution competition, chip probes free G1
# rat β-CGRP [11] = target: T3, rat β-CGRP; assay: Biacore (legend of Table 1)
# human α-CGRP [12] = target: T1, human α-CGRP; assay: Biacore, ratio of KD against rat α-CGRP
# human α-CGRP [13] = target: T1, human α-CGRP; assay: competition binding assay on SK-N-MC cells: antibody blocks binding of human α-CGRP to the CGRP1 receptor; value in IgG molecules
# F27A = target: T8, F27A; assay: Biacore 3000, 25 °C, alanine scan: N-biotinylated peptide on SA chip, G1 Fab titrated; fold loss versus wild-type 25-37 fragment
# Experimental: (§1) Interaction analysis was conducted at 25° C. on a Biacore 3000™ system equipped with streptavidin-coated (SA) sensor chips (Biacore AB, Uppsala, Sweden) using a standard Biacore running buffer (HBS-P). […] Each amino acid between position 27-37 was then mutated individually to alanine and expressed the fold loss in affinity compared to the wild-type fragment. […] Fab fragments were titrated over the chip using 1 μM as the top concentration of a two-fold dilution series. Association and dissociation phases were monitored at 100 μl/min for 1 minute and 5 minutes respectively. Surfaces were regenerated with a mixture of 35% ethanol+25 mM NaOH+0.5M NaCl.
# V32A = target: T9, V32A; assay: as above
# Experimental: as §1
# N31A = target: T10, N31A; assay: as above
# Experimental: as §1
# P29A = target: T11, P29A; assay: as above
# Experimental: as §1
# V28A = target: T12, V28A; assay: as above
# Experimental: as §1
# K35A = target: T13, K35A; assay: as above
# Experimental: as §1
# T30A = target: T14, T30A; assay: as above
# Experimental: as §1
# rat β-CGRP [14] = target: T3, rat β-CGRP; assay: Biacore (legend of Table 1), rat β-CGRP
binder,measurement,setting,value
"antibody G1 (antibody, human IgG2, kappa, V domains shown, Humanized IgG2 delta-a antibody derived from muMAb7E9; also called anti-CGRP antibody G1) VH: EVQLVESGGGLVQPGGSLRLSCAASGFTFSNYWISWVRQAPGKGLEWVAEIRSESDASATHYAEAVKGRFTISRDNAKNSLYLQMNSLRAEDTAVYYCLAYFDYGLAIQNYWGQGTLVTVSS VL: EIVLTQSPATLSLSPGERATLSCKASKRVTTYVSWYQQKPGQAPRLLIYGASNRYLGIPARFSGSGSGTDFTLTISSLEPEDFAVYYCSQSYNYPYTFGQGTKLEIKR",Kd,human α-CGRP [1],0.04 nM
same,Kd,rat α-CGRP [2],1.2 nM
same,IC50,human α-CGRP [3],1.2 nM
same,Kd,human α-CGRP [4],0.063 nM
same,T1/2,human α-CGRP [4],5.3 h
same,koff,human α-CGRP [4],3.63e-05 s⁻¹
same,kon,human α-CGRP [4],587000 M⁻¹ s⁻¹
same,Kd,rat α-CGRP [5],2.57 nM
same,T1/2,rat α-CGRP [5],28.8 min
same,koff,rat α-CGRP [5],0.000399 s⁻¹
same,kon,rat α-CGRP [5],155000 M⁻¹ s⁻¹
same,Kd,rat β-CGRP [6],0.152 nM
same,T1/2,rat β-CGRP [6],2.45 h
same,koff,rat β-CGRP [6],7.85e-05 s⁻¹
same,kon,rat β-CGRP [6],516000 M⁻¹ s⁻¹
same,Kd,human β-CGRP,0.155 nM
same,T1/2,human β-CGRP,2.76 h
same,koff,human β-CGRP,6.98e-05 s⁻¹
same,kon,human β-CGRP,451000 M⁻¹ s⁻¹
same,Kd,human α-CGRP [7],0.042 nM
same,T1/2,human α-CGRP [7],24.7 h
same,koff,human α-CGRP [7],7.8e-06 s⁻¹
same,kon,human α-CGRP [7],186000 M⁻¹ s⁻¹
same,Kd,rat α-CGRP [8],1.22 nM
same,T1/2,rat α-CGRP [8],3.12 h
same,koff,rat α-CGRP [8],6.18e-05 s⁻¹
same,kon,rat α-CGRP [8],50800 M⁻¹ s⁻¹
same,Kd,cynomolgus monkey α-CGRP,0.063 nM
same,IC50,human α-CGRP [9],1.8 nM
same,Ki,human α-CGRP [9],0.74 nM
same,IC50 (read off the curve),human α-CGRP [10],~0.1 µg/mL
same,binding result,calcitonin,no binding (tested: an excess)
same,binding result,adrenomedullin,no binding (tested: an excess)
same,binding result,amylin,no binding (tested: an excess)
same,Kd,rat β-CGRP [11],0.1 nM
same,fold more potent affinity than for rat α-CGRP,human α-CGRP [12],40 fold
same,Ki,human α-CGRP [13],0.37 nM
"Fab fragments of antibody G1 (Fab, V domains shown, 'Purified Fab fragments of antibody G1 were generated'; also called G1 Fab) VH: EVQLVESGGGLVQPGGSLRLSCAASGFTFSNYWISWVRQAPGKGLEWVAEIRSESDASATHYAEAVKGRFTISRDNAKNSLYLQMNSLRAEDTAVYYCLAYFDYGLAIQNYWGQGTLVTVSS VL: EIVLTQSPATLSLSPGERATLSCKASKRVTTYVSWYQQKPGQAPRLLIYGASNRYLGIPARFSGSGSGTDFTLTISSLEPEDFAVYYCSQSYNYPYTFGQGTKLEIK",Fold loss in affinity,F27A,1.4 fold
same,Fold loss in affinity,V32A,6.1 fold
same,Fold loss in affinity,N31A,1.9 fold
same,Fold loss in affinity,P29A,2.8 fold
same,Fold loss in affinity,V28A,1 fold
same,Fold loss in affinity,K35A,8.1 fold
same,Fold loss in affinity,T30A,1.7 fold
"antibody G2 (antibody, V domains shown, Anti-rat CGRP mouse monoclonal antibody (Wong et al. 1993); also called RN4901) VH: EVQLQQSGPELVKPGASVKMSCKASGYTFTSSVMHWVKQKPGQGLEWIGYINPYNDGTKYNEKFKGKATLTSDKSSSTAYMELSSLTSEDSAVYYCAKGGNDGYWGQGTTLTVSS VL: EIVLTQSPTTMAASPGEKITITCSASSSISSIYLHWYQQKPGFSPKVLIYRASNLASGVPARFSGSGSGTSYSLTIGTMEAEDVATYYCQQGSTIPFTFGSGTKLEIKR",Kd,human α-CGRP [1],17 nM
same,Kd,rat α-CGRP [2],1 nM
same,IC50,human α-CGRP [3],37 nM
same,Kd,rat β-CGRP [14],17 nM
